Earlier results in article PMC10910082.
pKd: −log10 of the molar value. Where two headings read alike, the source gives them in different places. Blank lines part the entries; values can stand above or below the substance they belong to.

Assays:
CD86 (Homo sapiens) = CD86 (Homo sapiens) (UniProt P42081)
CD80 (Homo sapiens) = CD80 (Homo sapiens) (UniProt P33681)
CD155 (Homo sapiens) [1] = target: CD155 (Homo sapiens) (UniProt P15151)
CD155 (Homo sapiens) [2] = target: CD155 (Homo sapiens) (UniProt P15151); remark: listed apart in the source

Sequence of UniProt P42081 (P42081 24-247): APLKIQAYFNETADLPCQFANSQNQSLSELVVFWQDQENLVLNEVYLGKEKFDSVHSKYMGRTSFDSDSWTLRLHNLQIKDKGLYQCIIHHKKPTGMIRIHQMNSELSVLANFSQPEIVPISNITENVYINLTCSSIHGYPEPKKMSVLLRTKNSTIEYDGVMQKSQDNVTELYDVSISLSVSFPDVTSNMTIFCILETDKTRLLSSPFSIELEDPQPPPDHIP
Sequence of UniProt P33681 (P33681 35-242): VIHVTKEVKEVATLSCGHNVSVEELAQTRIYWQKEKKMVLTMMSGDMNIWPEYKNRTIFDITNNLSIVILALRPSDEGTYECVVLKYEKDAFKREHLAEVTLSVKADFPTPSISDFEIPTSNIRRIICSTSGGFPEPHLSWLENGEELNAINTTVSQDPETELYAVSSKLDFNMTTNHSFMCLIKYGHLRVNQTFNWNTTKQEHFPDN

pKd (CD86 (Homo sapiens)): 4.56
pKd (CD80 (Homo sapiens)): 5.40
Substance: CD28 (from UniProt P10747)

pKd (CD155 (Homo sapiens) [1]): 6.93
Substance: CD226 (from UniProt Q15762)

pKd (CD155 (Homo sapiens) [2]): 8.70
Substance: TIGIT (from UniProt Q495A1)
